This note sets out measurements from patent US20220411487A1 (Regeneron, published 2022).

The target in test [1] is T1, full length human TMPRSS6 on HEK293 cells (HEK293/hTMPRSS6) (human, UniProt Q8IU80 10-811).
T1 sequence (looked up): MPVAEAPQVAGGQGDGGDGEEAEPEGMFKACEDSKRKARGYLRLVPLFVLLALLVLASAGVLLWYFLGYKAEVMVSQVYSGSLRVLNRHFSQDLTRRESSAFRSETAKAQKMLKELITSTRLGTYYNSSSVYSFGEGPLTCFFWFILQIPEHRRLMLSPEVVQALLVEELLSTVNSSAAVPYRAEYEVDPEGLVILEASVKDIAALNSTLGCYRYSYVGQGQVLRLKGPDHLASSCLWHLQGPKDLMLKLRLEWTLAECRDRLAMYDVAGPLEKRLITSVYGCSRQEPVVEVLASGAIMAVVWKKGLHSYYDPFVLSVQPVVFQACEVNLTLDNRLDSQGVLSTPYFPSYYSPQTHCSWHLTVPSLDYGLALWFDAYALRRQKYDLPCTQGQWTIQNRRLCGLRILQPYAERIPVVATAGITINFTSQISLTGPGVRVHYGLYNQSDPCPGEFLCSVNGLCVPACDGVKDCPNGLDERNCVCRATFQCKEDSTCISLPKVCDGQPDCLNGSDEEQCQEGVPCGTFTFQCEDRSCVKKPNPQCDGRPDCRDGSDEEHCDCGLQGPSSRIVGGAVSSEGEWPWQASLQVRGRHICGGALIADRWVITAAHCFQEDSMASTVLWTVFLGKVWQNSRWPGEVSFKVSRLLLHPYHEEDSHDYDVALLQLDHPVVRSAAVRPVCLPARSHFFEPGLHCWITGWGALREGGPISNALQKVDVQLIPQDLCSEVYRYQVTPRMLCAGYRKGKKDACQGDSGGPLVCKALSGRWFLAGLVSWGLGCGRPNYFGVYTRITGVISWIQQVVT
Nature of the test: cell-based or functional assay.

The next test deals with T2, hTMPRSS6_S762A-MMH (human, UniProt Q8IU80 77-811).
T2 construct: also called REGN5330; human TMPRSS6_S762A-MMH
Nature of the test: SPR, mAb captured via anti-hFc, 25 C. The protocol:
(§1) The equilibrium dissociation constant (KD) for TMPRSS6 binding to different TMPRSS6 monoclonal antibodies (mAbs) was determined using a real-time surface plasmon resonance biosensor using a Biacore 4000 instrument. All binding studies were performed in 10 mM HEPES, 150 mM NaCl, 3 mM EDTA, and 0.05% v/v Surfactant Tween-20, pH 7.4 (HBS-ET) running buffer at 25° C. and 37° C. The Biacore CM5 sensor chip surface was first derivatized by amine coupling with a human Fc specific mouse mAb to capture different TMPRSS6 mAbs. […] Different concentrations (100 nM to 3.7 nM, 3-fold serial dilution) of the TMPRSS6 reagent proteins prepared in HBS-EP running buffer were injected over the TMPRSS6 mAb captured surface for 150 seconds at a flow rate of 30 μL/min and their dissociation in HBS-ET running buffer was monitored for 10 minutes. At the end of each cycle, the TMPRSS6 mAb captured surface was regenerated using a 12 second injection of 20 mM phosphoric acid.
(§2) The association rate (kₐ) and dissociation rate (kd) were determined by fitting the real-time binding sensorgrams to a 1:1 binding model with mass transport limitation using Scrubber 2.0 (BioLogic Software) curve-fitting software. Binding dissociation equilibrium constant (KD) and dissociative half-life (t½) were calculated from the kinetic rates as: […]
On the technique in general: SPR reads the build-up and loss of mass on a sensor chip optically.

Another test deals with T3, mfTMPRSS6_S751A-MMH (Macaca fascicularis, UniProt Q8IU80 77-811 (human entry)).
T3 construct: also called REGN5977; Macaca fascicularis TMPRSS6 extracellular domain with a S751A mutation and a C-terminal myc-myc-hexahistidine tag
T3 chain: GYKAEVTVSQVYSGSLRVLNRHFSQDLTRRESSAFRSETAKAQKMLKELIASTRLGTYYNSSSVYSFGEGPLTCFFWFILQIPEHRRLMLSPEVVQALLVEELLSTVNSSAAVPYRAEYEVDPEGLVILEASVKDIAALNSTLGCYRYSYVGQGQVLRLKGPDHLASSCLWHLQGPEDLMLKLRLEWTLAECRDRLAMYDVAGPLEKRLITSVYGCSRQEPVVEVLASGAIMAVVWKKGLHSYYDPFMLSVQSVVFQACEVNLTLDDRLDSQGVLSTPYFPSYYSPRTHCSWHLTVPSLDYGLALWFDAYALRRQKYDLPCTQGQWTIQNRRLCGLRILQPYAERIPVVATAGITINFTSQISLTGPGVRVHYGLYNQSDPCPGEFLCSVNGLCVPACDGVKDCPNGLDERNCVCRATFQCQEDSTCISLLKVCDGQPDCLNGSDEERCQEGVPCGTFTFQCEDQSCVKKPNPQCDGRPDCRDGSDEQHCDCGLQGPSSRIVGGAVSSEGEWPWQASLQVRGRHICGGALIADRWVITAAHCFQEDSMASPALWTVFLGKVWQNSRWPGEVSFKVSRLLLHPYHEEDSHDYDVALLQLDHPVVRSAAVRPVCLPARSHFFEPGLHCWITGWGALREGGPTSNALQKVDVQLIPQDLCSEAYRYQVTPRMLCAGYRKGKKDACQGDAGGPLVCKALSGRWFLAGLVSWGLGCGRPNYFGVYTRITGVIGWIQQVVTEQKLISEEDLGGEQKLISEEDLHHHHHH
Nature of the test: SPR, mAb captured via anti-hFc, 25 C. The method, then: as §1, §2

B1: REGN8023 (antibody, human IgG4 S228P, kappa, V domains shown)
VH: EVQLVESGGGLVKPGGSLRISCAASGFIFVDYAMHWVRQAPGKGLEWVSGISWNSGSIGYADSVKGRFTISRDNAKKSLYLQMSGLRPEDTALYYCVKSGFYYVRSYFDNWGQGTLVTVSS
VL: DIVMTQSPLSLPVTPGEPASISCRSSQSLLDSDDGNTYLDWYLRKPGQSPQLLIYTLSYRASGVPDRFSGSGSGTDFTLKISRVEADDVGVYYCMQRIEFPLTFGGGTKVEIKR
notes: fully human; human IgG4 Fc with hinge S108P; also called mAb37699
Broadly, the Kd is the concentration at which binding is half-saturated. Low readings indicate tighter binding, high ones weaker binding. What is called koff is the rate constant with which the complex falls apart. As usually defined, the kon is a measure of how fast the partners come together. Low readings indicate slower complex formation, high ones faster complex formation. The t½ is the time needed for the level to fall by half in the phase considered. The low end stands for rapid decline, the high end for slow decline. As to B1, in test [1], the “% inhibition, HEK293 bioassay, 30 min pre-incubation 25 C” value (shortened to “% inhibition, HEK293 bioassay”) is 90% and the “IC50, HEK293 bioassay, 30 min pre-incubation 25 C” value (“IC50, HEK293 bioassay” below) amounted to 0.36 nM. In the test with hTMPRSS6_S762A-MMH, the “100 nM Ag Bound” value was 205 RU, the Kd was 0.128 nM, the koff amounted to 8.6e-05 s⁻¹ and the kon was determined as 671000 M⁻¹ s⁻¹. In the test with hTMPRSS6_S762A-MMH, this molecule returned a t½ of 2.23 h. For the same molecule, in the test with mfTMPRSS6_S751A-MMH, the “100 nM Ag Bound” value is 203 RU; the affinity, expressed as Kd, was 0.065 nM; the koff is 5.79e-05 s⁻¹; the kon came out at 891000 M⁻¹ s⁻¹. In addition, in the test with mfTMPRSS6_S751A-MMH, the t½ was found to be 3.32 h.

B2: REGN7999 (antibody, human IgG4 S228P, kappa, V domains shown)
VH: EVQLVESGGGLVQPGGSLRLSCAASGFTFSSYAMTWVRQAPGKGLEWVSAISGSDTSTYYADSVKGRFTISRDNSKNTLFLQMNSLRAEDTAVYYCAKHQDYDFSYYYSAMDVWGQGTTVTVSS
VL: DIQMTQSPSSLSASVGDRVIITCRASQDFNSWLAWYQQKPGKAPKLLIYAASSLQSGVPSRFSGSGSGTDFTLTISSLQPEDFATYYCQQTDSFPFTFGPGTKVDIKR
notes: fully human; human IgG4 Fc with hinge S108P; also called mAb41450
B2: in test [1], the “% inhibition, HEK293 bioassay” value is 86% and the “IC50, HEK293 bioassay” value worked out at 3 nM. Further, in the test with hTMPRSS6_S762A-MMH, the “100 nM Ag Bound” value was 176 RU, the Kd was determined as 0.243 nM, the koff was 6.49e-05 s⁻¹ and the kon is 267000 M⁻¹ s⁻¹. Besides, in the test with hTMPRSS6_S762A-MMH, the t½ amounted to 2.97 h. In the test with mfTMPRSS6_S751A-MMH, the “100 nM Ag Bound” value stood at 185 RU, the Kd turned out to be 0.11 nM, the koff is 7.23e-05 s⁻¹ and the kon was 660000 M⁻¹ s⁻¹. For the same molecule, the t½ with mfTMPRSS6_S751A-MMH came out at 2.67 h.

B3: REGN7969 (antibody, human IgG4 S228P, kappa, V domains shown)
VH: QVQLVESGGGVVQPGRSLRLSCAASGFTFNNYGMHWVRQAPGKGLEWVAIISYDGSNEYYSDSVKGRFTISRDNSKNTLYLQMNSLRAEDTAVYYCARDQDYGGNLFHYWGQGTLVTVSS
VL: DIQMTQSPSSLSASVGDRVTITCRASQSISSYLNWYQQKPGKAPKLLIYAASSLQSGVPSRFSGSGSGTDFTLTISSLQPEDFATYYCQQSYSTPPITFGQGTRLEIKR
notes: fully human; human IgG4 Fc with hinge S108P; also called mAb37746
Consider B3, for which, in test [1], the “% inhibition, HEK293 bioassay” value came to 87% and the “IC50, HEK293 bioassay” value worked out at 1.9 nM. Besides, in the test with hTMPRSS6_S762A-MMH, the “100 nM Ag Bound” value came to 89 RU, the Kd was found to be 0.45 nM, the koff amounted to 0.000182 s⁻¹ and the kon was determined as 404000 M⁻¹ s⁻¹. The t½ with hTMPRSS6_S762A-MMH is 1.07 h. For the same molecule, in the test with mfTMPRSS6_S751A-MMH, the “100 nM Ag Bound” value worked out at 92 RU, binding was characterised by a dissociation constant (Kd) of 0.435 nM, the koff worked out at 0.000182 s⁻¹ and the kon was 419000 M⁻¹ s⁻¹. Moreover, in the test with mfTMPRSS6_S751A-MMH, the t½ is 1.05 h.

B4: REGN7971 (antibody, human IgG4 S228P, kappa, V domains shown)
VH: QVQLVESGGGVVQPGRSLRLSCAASGFTFSTYGMHWVRQAPGKGLEWVAIISYDGSNDYYLDSVKGRFTISRDNSKNTLYLQMNNLRAEDTAVYYCAKDQGYGGNLFASWGQGTLVTVSS
VL: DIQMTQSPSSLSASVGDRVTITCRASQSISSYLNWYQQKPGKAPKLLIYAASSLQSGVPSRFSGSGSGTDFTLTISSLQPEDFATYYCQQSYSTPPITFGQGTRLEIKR
notes: fully human; human IgG4 Fc with hinge S108P; also called mAb37763
Regarding B4, in test [1], the “% inhibition, HEK293 bioassay” value came out at 86% and the “IC50, HEK293 bioassay” value stood at 0.97 nM. In the test with hTMPRSS6_S762A-MMH, the “100 nM Ag Bound” value was 103 RU, the equilibrium dissociation constant (Kd) came out at 0.322 nM, the off-rate (koff) was 0.000147 s⁻¹ and the kon came out at 455000 M⁻¹ s⁻¹. The molecule further displayed a t½ with hTMPRSS6_S762A-MMH of 1.32 h. Moreover, in the test with mfTMPRSS6_S751A-MMH, the “100 nM Ag Bound” value was 109 RU; the affinity, expressed as Kd, was 0.283 nM; the koff was 0.000138 s⁻¹; the kon was 487000 M⁻¹ s⁻¹. Moreover, the t½ with mfTMPRSS6_S751A-MMH was 1.4 h.

B5: REGN7974 (antibody, human IgG4 S228P, kappa, V domains shown)
VH: EVQLVESGGGLVQPGRSLRLSCIASGFNFGDYGMSWVRQAPGKGLEWVGFIRSKAYGGTTEYAASVKGRFTISRDDSKSIAYLQMNSLKTEDAAMYYCSRDYYDILTGYYGDYWGQGTLVTVSS
VL: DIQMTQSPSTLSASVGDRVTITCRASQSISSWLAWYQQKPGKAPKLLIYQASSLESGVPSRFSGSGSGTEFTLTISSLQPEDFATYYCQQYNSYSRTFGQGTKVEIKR
notes: fully human; human IgG4 Fc with hinge S108P; also called mAb41422
Regarding B5, in test [1], the “% inhibition, HEK293 bioassay” value turned out to be 86% and the “IC50, HEK293 bioassay” value came to 5.1 nM. In the test with hTMPRSS6_S762A-MMH, the “100 nM Ag Bound” value was 191 RU; the affinity, expressed as Kd, was 2.63 nM; the koff was 0.00068 s⁻¹; the kon was determined as 259000 M⁻¹ s⁻¹. The molecule further had a t½ in the test with hTMPRSS6_S762A-MMH of 0.283 h. Besides, in the test with mfTMPRSS6_S751A-MMH, the “100 nM Ag Bound” value came to 188 RU, the Kd was 7.18 nM, the koff was 0.00192 s⁻¹ and the kon amounted to 268000 M⁻¹ s⁻¹. This molecule also yielded a t½ with mfTMPRSS6_S751A-MMH of 0.1 h.

B6: REGN7977 (antibody, V domains shown)
VH: EVQLVESGGGLVKPGGSLRVSCAASGVTFSNVWMSWVRQVPGKGLEWVGRIKSKTDGGTTDYAAPVKGRFTISKDDSKNTLFLQMNSLKTEDTAVYYCTTETGDFWSGYYPRFQHWGQGTLVTVSS
VL: DIQMTQSPSSLSASVGDRVTITCRASQYISTYLNWYQQKPGKAPSLLIYAASSLQSGVPSRFSGSGSGTDFTLTISSLQPEDFASYSCQQSYSTPPYTFGQGTKLEIKR
notes: fully human; human IgG4 Fc with hinge S108P; also called mAb41465
Turning to B6, in test [1], the “% inhibition, HEK293 bioassay” value stood at 86% and the “IC50, HEK293 bioassay” value amounted to 3.6 nM. Besides, in the test with hTMPRSS6_S762A-MMH, the “100 nM Ag Bound” value came to 159 RU, the Kd was determined as 1.69 nM, the koff is 0.000368 s⁻¹ and the kon came out at 218000 M⁻¹ s⁻¹. This molecule registered a t½ with hTMPRSS6_S762A-MMH of 0.517 h. In the test with mfTMPRSS6_S751A-MMH, the “100 nM Ag Bound” value was determined as 155 RU, the Kd is 3.09 nM, the koff is 0.000697 s⁻¹ and the kon was determined as 225000 M⁻¹ s⁻¹. The molecule also displayed a t½ with mfTMPRSS6_S751A-MMH of 0.283 h.
